Biological target: FMRP RGG box (UniProt Q06787 527-554)
Assay: EMSA

Q: Does GGGUACGGGAGGGUAAGGCUGUGGGUCGCGUG (structured_RNA) [NR2B mRNA (32 nt)] bind?
A: Result: binds

Reference: paper PMC4643373
